Experiment [1] deals with T1, GST-MLK4β (Mixed Lineage Kinase 4β) (human, UniProt Q5TCX8-1 1-1036). The experiment can be described thus: pull-down.
Experiment [2] deals with T1, GST-MLK4β (Mixed Lineage Kinase 4β). Briefly: pull-down. The source holds these as a separate data set.

Like-named read-outs stand apart in the source and are kept apart here.

T1 sequence (Q5TCX8 whole entry): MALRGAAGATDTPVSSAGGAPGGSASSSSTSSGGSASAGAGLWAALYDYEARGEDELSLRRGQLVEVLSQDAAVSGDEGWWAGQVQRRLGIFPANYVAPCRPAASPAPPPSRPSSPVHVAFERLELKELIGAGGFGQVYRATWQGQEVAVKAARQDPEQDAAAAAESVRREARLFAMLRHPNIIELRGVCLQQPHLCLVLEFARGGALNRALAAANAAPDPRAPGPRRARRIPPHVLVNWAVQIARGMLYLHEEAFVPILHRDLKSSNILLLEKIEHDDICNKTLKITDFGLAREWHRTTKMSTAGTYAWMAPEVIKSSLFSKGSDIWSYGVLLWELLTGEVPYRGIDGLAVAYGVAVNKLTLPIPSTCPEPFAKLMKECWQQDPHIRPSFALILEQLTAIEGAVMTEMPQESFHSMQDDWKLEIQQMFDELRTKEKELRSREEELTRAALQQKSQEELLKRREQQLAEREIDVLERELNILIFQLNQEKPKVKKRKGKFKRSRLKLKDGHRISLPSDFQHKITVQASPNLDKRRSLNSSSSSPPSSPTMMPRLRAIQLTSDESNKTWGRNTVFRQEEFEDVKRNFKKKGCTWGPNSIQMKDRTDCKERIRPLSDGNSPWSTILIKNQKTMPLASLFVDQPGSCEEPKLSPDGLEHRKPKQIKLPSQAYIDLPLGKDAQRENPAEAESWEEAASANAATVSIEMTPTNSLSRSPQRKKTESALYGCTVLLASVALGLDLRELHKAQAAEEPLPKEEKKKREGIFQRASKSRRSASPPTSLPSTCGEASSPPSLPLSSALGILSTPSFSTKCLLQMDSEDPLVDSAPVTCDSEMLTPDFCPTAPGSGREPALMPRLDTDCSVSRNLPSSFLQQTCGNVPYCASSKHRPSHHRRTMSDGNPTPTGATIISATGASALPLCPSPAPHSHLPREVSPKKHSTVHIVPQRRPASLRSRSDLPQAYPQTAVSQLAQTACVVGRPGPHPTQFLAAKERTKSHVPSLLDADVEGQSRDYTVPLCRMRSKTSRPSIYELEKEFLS

B1: His-MLK3 (Mixed Lineage Kinase 3) (enzyme, human, UniProt Q16584 1-847, looked up)
chain: MEPLKSLFLKSPLGSWNGSGSGGGGGGGGGRPEGSPKAAGYANPVWTALFDYEPSGQDELALRKGDRVEVLSRDAAISGDEGWWAGQVGGQVGIFPSNYVSRGGGPPPCEVASFQELRLEEVIGIGGFGKVYRGSWRGELVAVKAARQDPDEDISVTAESVRQEARLFAMLAHPNIIALKAVCLEEPNLCLVMEYAAGGPLSRALAGRRVPPHVLVNWAVQIARGMHYLHCEALVPVIHRDLKSNNILLLQPIESDDMEHKTLKITDFGLAREWHKTTQMSAAGTYAWMAPEVIKASTFSKGSDVWSFGVLLWELLTGEVPYRGIDCLAVAYGVAVNKLTLPIPSTCPEPFAQLMADCWAQDPHRRPDFASILQQLEALEAQVLREMPRDSFHSMQEGWKREIQGLFDELRAKEKELLSREEELTRAAREQRSQAEQLRRREHLLAQWELEVFERELTLLLQQVDRERPHVRRRRGTFKRSKLRARDGGERISMPLDFKHRITVQASPGLDRRRNVFEVGPGDSPTFPRFRAIQLEPAEPGQAWGRQSPRRLEDSSNGERRACWAWGPSSPKPGEAQNGRRRSRMDEATWYLDSDDSSPLGSPSTPPALNGNPPRPSLEPEEPKRPVPAERGSSSGTPKLIQRALLRGTALLASLGLGRDLQPPGGPGRERGESPTTPPTPTPAPCPTEPPPSPLICFSLKTPDSPPTPAPLLLDLGIPVGQRSAKSPRREEEPRGGTVSPPPGTSRSAPGTPGTPRSPPLGLISRPRPSPLRSRIDPWSFVSAGPRPSPLPSPQPAPRRAPWTLFPDSDPFWDSPPANPFQGGPQDCRAQTKDMGAQAPWVPEAGP
As for B1, the binding result in experiment [1] is listed as “binds”.

B2: FLAG-CHIP (carboxy-terminus of Hsc70-interacting protein) (enzyme, human, UniProt Q9UNE7 1-303, looked up)
chain: MKGKEEKEGGARLGAGGGSPEKSPSAQELKEQGNRLFVGRKYPEAAACYGRAITRNPLVAVYYTNRALCYLKMQQHEQALADCRRALELDGQSVKAHFFLGQCQLEMESYDEAIANLQRAYSLAKEQRLNFGDDIPSALRIAKKKRWNSIEERRIHQESELHSYLSRLIAAERERELEECQRNHEGDEDDSHVRAQQACIEAKHDKYMADMDELFSQVDEKRKKRDIPDYLCGKISFELMREPCITPSGITYDRKDIEEHLQRVGHFDPVTRSPLTQEQLIPNLAMKEVIDAFISENGWVEDY
Turning to B2, in experiment [2], the binding result was “binds”.

Values taken from publication PMC5592140 (Cellular signalling, 2017).
